Target: untagged recombinant mouse TWEAK (mouse) (UniProt O54907)
Sequence of UniProt O54907 (O54907 94-249): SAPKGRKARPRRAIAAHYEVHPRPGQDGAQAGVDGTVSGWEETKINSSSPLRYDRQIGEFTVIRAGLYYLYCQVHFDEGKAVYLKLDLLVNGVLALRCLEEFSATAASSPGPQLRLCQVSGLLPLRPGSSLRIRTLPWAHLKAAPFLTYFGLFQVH

- TWEAK (200 ng ml^-1)-induced canonical and non-canonical NF-kB signalling in mouse endothelial cells (MDEC), immunoblotting, with increasing doses of recombinant mouse sCD163: 50
Substance: recombinant mouse sCD163 (receptor)

Reference: PMC4918310
